Data from patent publication US20260242419A1, “A CYCLIC PEPTIDE FOR TRAPPING INTERLEUKIN-1 BETA” (Merck Sharp & Dohme LLC, priority 2023, published 2026).
Starred links: 1 amine or outer side, 2 acyl side, 3 side chain; linkers in the order of their positions; H or OH if unused. Non-standard residues stand in square brackets, D forms with d. dProc3CH2Pyrim = (2R,3S)-3-(pyrimidin-5-ylmethyl)pyrrolidine-2-carboxylic acid, O=C([C@H]1[C@@H](Cc2cncnc2)CCN1[*:1])[*:2]; TyrEtNAc = (2S)-3-[4-(2-acetamidoethoxy)phenyl]-2-amino-propanoic acid, CC(=O)NCCOc1ccc(C[C@H](N[*:1])C(=O)[*:2])cc1; dProc3Bn = (2R,3S)-3-benzylpyrrolidine-2-carboxylic acid, O=C([C@H]1[C@@H](Cc2ccccc2)CCN1[*:1])[*:2]; Phe(4-(trans-4-COOH-cHex)) = N[C@@H](Cc1ccc([C@H]2CC[C@H](C(=O)O)CC2)cc1)C(=O)O; Phe(4-(cis-4-COOH-cHex)) = N[C@@H](Cc1ccc([C@H]2CC[C@@H](C(=O)O)CC2)cc1)C(=O)O; Trp(βS-Me,4-F) = C[C@@H](c1c[nH]c2cccc(F)c12)[C@H](N)C(=O)O; 3Aminoazetidine3carboxyl = O=C(C1(N[*:1])CN([*:3])C1)[*:2]; Bip(4'-COOH) = N[C@@H](Cc1ccc(-c2ccc(C(=O)O)cc2)cc1)C(=O)O; dPro(4R-Bzl(4-F)) = O=C(O)[C@H]1C[C@@H](Cc2ccc(F)cc2)CN1; Ala(pyrimidin-5-yl) = N[C@@H](Cc1cncnc1)C(=O)O; Phe(4-COOH) = N[C@@H](Cc1ccc(C(=O)O)cc1)C(=O)O; Pro(cis-4-F) = O=C(O)[C@@H]1C[C@H](F)CN1; 2Pal = N[C@@H](Cc1ccccn1)C(=O)O; 3Pal = N[C@@H](Cc1cccnc1)C(=O)O; 4Pal = N[C@@H](Cc1ccncc1)C(=O)O; αMeK = C[C@](N)(CCCCN)C(=O)O; Dab = NCC[C@H](N)C(=O)O; Dap = NC[C@H](N)C(=O)O; Aib = CC(C)(N)C(=O)O

B1: SEQ ID NO: 73 (peptide)
peptide: cyclo([Bip(4'-COOH)][4Pal][Phe(4-COOH)]G[Pro(cis-4-F)][Trp(βS-Me,4-F)][Aib]EW[Aib][2Pal]Q[Dab]G[dPro(4R-Bzl(4-F))])
SMILES: C[C@@H](c1c[nH]c2cccc(F)c12)[C@@H]1NC(=O)[C@@H]2C[C@H](F)CN2C(=O)CNC(=O)[C@H](Cc2ccc(C(=O)O)cc2)NC(=O)[C@H](Cc2ccncc2)NC(=O)[C@H](Cc2ccc(-c3ccc(C(=O)O)cc3)cc2)NC(=O)[C@H]2C[C@@H](Cc3ccc(F)cc3)CN2C(=O)CNC(=O)[C@H](CCN)NC(=O)[C@H](CCC(N)=O)NC(=O)[C@H](Cc2ccccn2)NC(=O)C(C)(C)NC(=O)[C@H](Cc2c[nH]c3ccccc23)NC(=O)[C@H](CCC(=O)O)NC(=O)C(C)(C)NC1=O
B2: SEQ ID NO: 70 (peptide)
peptide: cyclo([TyrEtNAc][4Pal][Phe(4-COOH)][Pro(cis-4-F)][Trp(βS-Me,4-F)][Aib]EW[Aib][Ala(pyrimidin-5-yl)]Q[Dab]G[dProc3CH2Pyrim])
SMILES: CC(=O)NCCOc1ccc(C[C@@H]2NC(=O)[C@H]3[C@@H](Cc4cncnc4)CCN3C(=O)CNC(=O)[C@H](CCN)NC(=O)[C@H](CCC(N)=O)NC(=O)[C@H](Cc3cncnc3)NC(=O)C(C)(C)NC(=O)[C@H](Cc3c[nH]c4ccccc34)NC(=O)[C@H](CCC(=O)O)NC(=O)C(C)(C)NC(=O)[C@H]([C@@H](C)c3c[nH]c4cccc(F)c34)NC(=O)[C@@H]3C[C@H](F)CN3C(=O)[C@H](Cc3ccc(C(=O)O)cc3)NC(=O)[C@H](Cc3ccncc3)NC2=O)cc1
B3: SEQ ID NO: 76 (peptide)
peptide: cyclo([Bip(4'-COOH)][4Pal][Phe(4-COOH)]G[Pro(cis-4-F)][Trp(βS-Me,4-F)][Aib]EW[Aib][4Pal]QRG[dPro(4R-Bzl(4-F))])
SMILES: C[C@@H](c1c[nH]c2cccc(F)c12)[C@@H]1NC(=O)[C@@H]2C[C@H](F)CN2C(=O)CNC(=O)[C@H](Cc2ccc(C(=O)O)cc2)NC(=O)[C@H](Cc2ccncc2)NC(=O)[C@H](Cc2ccc(-c3ccc(C(=O)O)cc3)cc2)NC(=O)[C@H]2C[C@@H](Cc3ccc(F)cc3)CN2C(=O)CNC(=O)[C@H](CCCNC(=N)N)NC(=O)[C@H](CCC(N)=O)NC(=O)[C@H](Cc2ccncc2)NC(=O)C(C)(C)NC(=O)[C@H](Cc2c[nH]c3ccccc23)NC(=O)[C@H](CCC(=O)O)NC(=O)C(C)(C)NC1=O
B4: SEQ ID NO: 7 (peptide)
peptide: cyclo([Bip(4'-COOH)][4Pal][Phe(4-COOH)]G[Pro(cis-4-F)][Trp(βS-Me,4-F)][Aib]EW[Aib][Ala(pyrimidin-5-yl)]Q[Dap]G[dPro(4R-Bzl(4-F))])
SMILES: C[C@@H](c1c[nH]c2cccc(F)c12)[C@@H]1NC(=O)[C@@H]2C[C@H](F)CN2C(=O)CNC(=O)[C@H](Cc2ccc(C(=O)O)cc2)NC(=O)[C@H](Cc2ccncc2)NC(=O)[C@H](Cc2ccc(-c3ccc(C(=O)O)cc3)cc2)NC(=O)[C@H]2C[C@@H](Cc3ccc(F)cc3)CN2C(=O)CNC(=O)[C@H](CN)NC(=O)[C@H](CCC(N)=O)NC(=O)[C@H](Cc2cncnc2)NC(=O)C(C)(C)NC(=O)[C@H](Cc2c[nH]c3ccccc23)NC(=O)[C@H](CCC(=O)O)NC(=O)C(C)(C)NC1=O
B5: SEQ ID NO: 74 (peptide)
peptide: cyclo([TyrEtNAc][4Pal][Phe(4-COOH)][Pro(cis-4-F)][Trp(βS-Me,4-F)][Aib]EW[Aib]RQ[Dab]G[dPro(4R-Bzl(4-F))])
SMILES: CC(=O)NCCOc1ccc(C[C@@H]2NC(=O)[C@H]3C[C@@H](Cc4ccc(F)cc4)CN3C(=O)CNC(=O)[C@H](CCN)NC(=O)[C@H](CCC(N)=O)NC(=O)[C@H](CCCNC(=N)N)NC(=O)C(C)(C)NC(=O)[C@H](Cc3c[nH]c4ccccc34)NC(=O)[C@H](CCC(=O)O)NC(=O)C(C)(C)NC(=O)[C@H]([C@@H](C)c3c[nH]c4cccc(F)c34)NC(=O)[C@@H]3C[C@H](F)CN3C(=O)[C@H](Cc3ccc(C(=O)O)cc3)NC(=O)[C@H](Cc3ccncc3)NC2=O)cc1
B6: SEQ ID NO: 77 (peptide)
peptide: cyclo([TyrEtNAc][4Pal][Phe(4-COOH)][Pro(cis-4-F)][Trp(βS-Me,4-F)][Aib]EW[Aib][Ala(pyrimidin-5-yl)]QSG[dProc3Bn])
SMILES: CC(=O)NCCOc1ccc(C[C@@H]2NC(=O)[C@H]3[C@@H](Cc4ccccc4)CCN3C(=O)CNC(=O)[C@H](CO)NC(=O)[C@H](CCC(N)=O)NC(=O)[C@H](Cc3cncnc3)NC(=O)C(C)(C)NC(=O)[C@H](Cc3c[nH]c4ccccc34)NC(=O)[C@H](CCC(=O)O)NC(=O)C(C)(C)NC(=O)[C@H]([C@@H](C)c3c[nH]c4cccc(F)c34)NC(=O)[C@@H]3C[C@H](F)CN3C(=O)[C@H](Cc3ccc(C(=O)O)cc3)NC(=O)[C@H](Cc3ccncc3)NC2=O)cc1
B7: SEQ ID NO: 71 (peptide)
peptide: cyclo([Bip(4'-COOH)][4Pal][Phe(4-COOH)]G[Pro(cis-4-F)][Trp(βS-Me,4-F)][Aib]EW[Aib][Ala(pyrimidin-5-yl)]Q[Dab]G[dProc3CH2Pyrim])
SMILES: C[C@@H](c1c[nH]c2cccc(F)c12)[C@@H]1NC(=O)[C@@H]2C[C@H](F)CN2C(=O)CNC(=O)[C@H](Cc2ccc(C(=O)O)cc2)NC(=O)[C@H](Cc2ccncc2)NC(=O)[C@H](Cc2ccc(-c3ccc(C(=O)O)cc3)cc2)NC(=O)[C@H]2[C@@H](Cc3cncnc3)CCN2C(=O)CNC(=O)[C@H](CCN)NC(=O)[C@H](CCC(N)=O)NC(=O)[C@H](Cc2cncnc2)NC(=O)C(C)(C)NC(=O)[C@H](Cc2c[nH]c3ccccc23)NC(=O)[C@H](CCC(=O)O)NC(=O)C(C)(C)NC1=O
B8: SEQ ID NO: 69 (peptide)
peptide: cyclo([Phe(4-(cis-4-COOH-cHex))][4Pal][Phe(4-COOH)]G[Pro(cis-4-F)][Trp(βS-Me,4-F)][Aib]EW[3Aminoazetidine3carboxyl][Ala(pyrimidin-5-yl)]Q[Dab]G[dPro(4R-Bzl(4-F))])
SMILES: C[C@@H](c1c[nH]c2cccc(F)c12)[C@@H]1NC(=O)[C@@H]2C[C@H](F)CN2C(=O)CNC(=O)[C@H](Cc2ccc(C(=O)O)cc2)NC(=O)[C@H](Cc2ccncc2)NC(=O)[C@H](Cc2ccc([C@H]3CC[C@@H](C(=O)O)CC3)cc2)NC(=O)[C@H]2C[C@@H](Cc3ccc(F)cc3)CN2C(=O)CNC(=O)[C@H](CCN)NC(=O)[C@H](CCC(N)=O)NC(=O)[C@H](Cc2cncnc2)NC(=O)C2(CNC2)NC(=O)[C@H](Cc2c[nH]c3ccccc23)NC(=O)[C@H](CCC(=O)O)NC(=O)C(C)(C)NC1=O
B9: SEQ ID NO: 68 (peptide)
peptide: cyclo([Phe(4-(trans-4-COOH-cHex))][4Pal][Phe(4-COOH)]G[Pro(cis-4-F)][Trp(βS-Me,4-F)][Aib]EW[3Aminoazetidine3carboxyl][Ala(pyrimidin-5-yl)]Q[Dab]G[dPro(4R-Bzl(4-F))])
SMILES: C[C@@H](c1c[nH]c2cccc(F)c12)[C@@H]1NC(=O)[C@@H]2C[C@H](F)CN2C(=O)CNC(=O)[C@H](Cc2ccc(C(=O)O)cc2)NC(=O)[C@H](Cc2ccncc2)NC(=O)[C@H](Cc2ccc([C@H]3CC[C@H](C(=O)O)CC3)cc2)NC(=O)[C@H]2C[C@@H](Cc3ccc(F)cc3)CN2C(=O)CNC(=O)[C@H](CCN)NC(=O)[C@H](CCC(N)=O)NC(=O)[C@H](Cc2cncnc2)NC(=O)C2(CNC2)NC(=O)[C@H](Cc2c[nH]c3ccccc23)NC(=O)[C@H](CCC(=O)O)NC(=O)C(C)(C)NC1=O
B10: SEQ ID NO: 66 (peptide)
peptide: cyclo([Bip(4'-COOH)][4Pal][Phe(4-COOH)]G[Pro(cis-4-F)][Trp(βS-Me,4-F)][αMeK]EW[Aib][Ala(pyrimidin-5-yl)]Q[Dab]G[dPro(4R-Bzl(4-F))])
SMILES: C[C@@H](c1c[nH]c2cccc(F)c12)[C@@H]1NC(=O)[C@@H]2C[C@H](F)CN2C(=O)CNC(=O)[C@H](Cc2ccc(C(=O)O)cc2)NC(=O)[C@H](Cc2ccncc2)NC(=O)[C@H](Cc2ccc(-c3ccc(C(=O)O)cc3)cc2)NC(=O)[C@H]2C[C@@H](Cc3ccc(F)cc3)CN2C(=O)CNC(=O)[C@H](CCN)NC(=O)[C@H](CCC(N)=O)NC(=O)[C@H](Cc2cncnc2)NC(=O)C(C)(C)NC(=O)[C@H](Cc2c[nH]c3ccccc23)NC(=O)[C@H](CCC(=O)O)NC(=O)[C@](C)(CCCCN)NC1=O
B11: SEQ ID NO: 75 (peptide)
peptide: cyclo([Bip(4'-COOH)][4Pal][Phe(4-COOH)]G[Pro(cis-4-F)][Trp(βS-Me,4-F)][Aib]EW[Aib][Ala(pyrimidin-5-yl)]QRG[dPro(4R-Bzl(4-F))])
SMILES: C[C@@H](c1c[nH]c2cccc(F)c12)[C@@H]1NC(=O)[C@@H]2C[C@H](F)CN2C(=O)CNC(=O)[C@H](Cc2ccc(C(=O)O)cc2)NC(=O)[C@H](Cc2ccncc2)NC(=O)[C@H](Cc2ccc(-c3ccc(C(=O)O)cc3)cc2)NC(=O)[C@H]2C[C@@H](Cc3ccc(F)cc3)CN2C(=O)CNC(=O)[C@H](CCCNC(=N)N)NC(=O)[C@H](CCC(N)=O)NC(=O)[C@H](Cc2cncnc2)NC(=O)C(C)(C)NC(=O)[C@H](Cc2c[nH]c3ccccc23)NC(=O)[C@H](CCC(=O)O)NC(=O)C(C)(C)NC1=O

These binders were tested against Recombinant human IL-1β (BioLegend 579404) (human, UniProt P01584 117-269) (assay: cell-based or functional assay).

| MRC5 IC50 [nM] | Binder |
| --- | --- |
| 0.031 | B1 |
| 0.027 | cyclo([Bip(4'-COOH)][4Pal][Phe(4-COOH)]G[Pro(cis-4-F)][Trp(βS-Me,4-F)][Aib]EW[Aib][3Pal]Q[Dab]G[dPro(4R-Bzl(4-F))]) [SEQ ID NO: 72] |
| 0.081 | B2 |
| 0.059 | B3 |
| 0.021 | cyclo([Bip(4'-COOH)][4Pal][Phe(4-COOH)]G[Pro(cis-4-F)][Trp(βS-Me,4-F)][Aib]EW[αMeK][Ala(pyrimidin-5-yl)]Q[Dab]G[dPro(4R-Bzl(4-F))]) [SEQ ID NO: 67] |
| 0.026 | B4 |
| 0.072 | B5 |
| 0.079 | B6 |
| 0.058 | B7 |
| 0.03 | B8 |
| 0.029 | B9 |
| 0.028 | B10 |
| 0.056 | B11 |
